US20250163168A1 (Pfizer, published 2025)
Square brackets hold non-standard residues; d marks the D form. Ends that are not written are not given here. * marks the point of attachment. Aib = CC(C)(N)C(=O)O; BrAc = O=C(CBr)*

Experiments:
human GLP1R = human GLP1R (human, UniProt P43220 24-463); assay: cell-based or functional assay
[1] = target: T1, Human GIPR ECD (GIPR extra cellular domain) (human); assay: SPR (Biacore 8K, 37 C); antibody captured on anti-human IgG, human GIPR ECD as analyte; 1:1 model
T1 construct: The published benchmark structures (6dkj, 4hj0) used their own ECD constructs
T1 chain: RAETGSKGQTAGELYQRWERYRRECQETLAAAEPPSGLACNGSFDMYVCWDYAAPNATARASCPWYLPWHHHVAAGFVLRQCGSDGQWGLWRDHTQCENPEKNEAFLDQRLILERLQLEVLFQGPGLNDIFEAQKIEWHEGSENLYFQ

[2] = target: T2, human GIPR (hGIPR), full length (human, UniProt P48546 22-466); assay: cell-based or functional assay
T2 sequence: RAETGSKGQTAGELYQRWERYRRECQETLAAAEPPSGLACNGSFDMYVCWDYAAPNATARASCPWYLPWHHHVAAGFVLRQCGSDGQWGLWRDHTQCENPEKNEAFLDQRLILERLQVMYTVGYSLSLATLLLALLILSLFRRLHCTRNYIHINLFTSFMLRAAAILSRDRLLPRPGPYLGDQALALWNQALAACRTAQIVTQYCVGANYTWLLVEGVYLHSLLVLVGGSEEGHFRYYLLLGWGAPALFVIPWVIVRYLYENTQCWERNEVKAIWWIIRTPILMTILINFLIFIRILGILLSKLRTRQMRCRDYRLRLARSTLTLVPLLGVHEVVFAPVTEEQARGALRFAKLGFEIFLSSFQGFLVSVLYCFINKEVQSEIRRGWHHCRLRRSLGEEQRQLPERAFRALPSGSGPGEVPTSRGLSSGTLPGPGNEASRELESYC

Chain of human GLP1R (P43220 24-463): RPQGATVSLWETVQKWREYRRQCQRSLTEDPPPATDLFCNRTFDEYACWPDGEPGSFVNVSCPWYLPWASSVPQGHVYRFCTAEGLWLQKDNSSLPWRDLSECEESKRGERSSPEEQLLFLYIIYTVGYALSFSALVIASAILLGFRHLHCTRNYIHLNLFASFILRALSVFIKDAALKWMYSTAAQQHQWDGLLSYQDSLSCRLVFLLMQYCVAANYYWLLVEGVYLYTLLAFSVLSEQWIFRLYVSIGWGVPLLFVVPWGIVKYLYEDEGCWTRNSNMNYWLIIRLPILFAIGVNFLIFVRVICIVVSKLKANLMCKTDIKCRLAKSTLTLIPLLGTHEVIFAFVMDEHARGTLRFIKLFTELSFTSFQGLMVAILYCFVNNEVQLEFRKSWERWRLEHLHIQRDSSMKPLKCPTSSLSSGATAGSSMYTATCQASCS

## H-H[Aib]EGTFTSDVSSYLEEQAAKEFIAWLVKGGGGGGGSGGGGSGGGGSK(BrAc) (not fully specified (C-terminus)) [SEQ ID NO 153 (Benchmark): GLP1(7-37) [Aib8; Glu22; Gly36] with GGGGS(x3)-K(BrAc) linker]
Human GLP1R
  cAMP assay, GLP1R agonist mode, EC50 (pM): 15 pM
  cAMP assay, GLP1R agonist mode, Emax (%): 109%

## H-H[Aib]EGTFTSDYSSYLE[Aib]QAAKEFIAWLVKGRGGGGGSGGGGSGGGGSK(BrAc) (not fully specified (C-terminus)) [SEQ ID NO 152: GLP1(7-37) [Aib8; Tyr16; Aib22] with GGGGS(x3)-K(BrAc) linker]
Human GLP1R
  cAMP assay, GLP1R agonist mode, EC50 (pM): 2.1 pM
  cAMP assay, GLP1R agonist mode, Emax (%): 107%

## H[Aib]EGTFTSDYSSYLEEQAAKEFIAWLVKGRGGGGGSGGGGSGGGGSK(BrAc) (not fully specified (C-terminus)) [SEQ ID NO 151: GLP1(7-37) [Aib8; Tyr16; Glu22] with GGGGS(x3)-K(BrAc) linker]
Human GLP1R
  cAMP assay, GLP1R agonist mode, EC50 (pM): 3.5 pM
  cAMP assay, GLP1R agonist mode, Emax (%): 109%

B1: anti-GIPR antibody GIPR-2767 (antibody, human IgG1, kappa)
heavy: EVQLVESGGGLVKPGGSLRLSCAASGFPFSSAWMSWVRQAPGKGLEWVGRIKSKADAGTTDYGAPVKGRFTISRDDSKNTLYLQMNSLKTEDTAVYYCTTEDIVGVPFKGYYQYMDAWGKGTTVTVSSASTKGPSVFPLAPSSKSTSGGTAALGCLVKDYFPEPVTVSWNSGALTSGVHTFPAVLQSSGLYSLSSVVTVPSSSLGTQTYICNVNHKPSNTKVDKKVEPKSCDKTHTCPPCPAPEAAGAPSVFLFPPKPKDTLMISRTPEVTCVVVDVSHEDPEVKFNWYVDGVEVHNAKTKPREEQYNSTYRVVSVLTVLHQDWLNGKEYKCKVSNKALPAPIEKTISKAKGQPREPQVYTLPPSREEMTKNQVSLTCLVKGFYPSDIAVEWESNGQPENNYKTTPPVLDSDGSFFLYSKLTVDKSRWQQGNVFSCSVMHEALHNHYTQKSLSLSPGK
light: not shown
notes: also called GIPR-27676; GIPR-2676
[1]
  Kd: 1.91 nM
  koff: 0.0013 s⁻¹
  kon: 684000 M⁻¹ s⁻¹
[2]
  Human GIPR-CHO cAMP Antagonist Activity IC50: 28 nM

## H-H[Aib]EGTFTSDVSSYLE[Aib]QAAKEFIAWLVKGRGGGGGSGGGGSGGGGSK(BrAc) (not fully specified (C-terminus)) [SEQ ID NO 150: GLP1(7-37) [Aib8; Aib22] with GGGGS(x3)-K(BrAc) linker]
Human GLP1R
  cAMP assay, GLP1R agonist mode, Emax (%): 104%
